Bridges are numbered along the chain shown (N, C = ends). Primed or numbered codes have the meaning given here. [ ]: non-standard residue; d: D form. 8x polyethylene glycol‑amino = O-(8x polyethylene glycol-amino)-tyrosine, SITE 45; 9x polyethylene glycol‑azido = O-(9x polyethylene glycol-azido)-tyrosine, SITE 42; Ygp(4) = Tyr with amino-capped PEG8 (O-(8x polyethylene glycol-amino)-tyrosine); Yn3(4) = Tyr with azide-capped PEG9 (O-(9x polyethylene glycol-azido)-tyrosine); Ygp = O-(8x polyethylene glycol-amino)-tyrosine (Tyr, amino-capped PEG8); Yn3 = O-(9x polyethylene glycol-azido)-tyrosine (Tyr, azide-capped PEG9); Ygp″ = O-(8x polyethylene glycol-amino)-tyrosine; Yn3″ = O-(9x polyethylene glycol-azido)-tyrosine; Ygp(6) = Tyr, amino-capped PEG8; Yn3(6) = Tyr, azide-capped PEG9; PEG4′ = 4x polyethylene glycol; hSer = N[C@@H](CCO)C(=O)O; Nle = CCCC[C@H](N)C(=O)O
T1: IL-2Rβγ on HEK-Blue IL-2Rβγ reporter cells (InvivoGen) (UniProt P14784 27-551; P31785 23-369, limits assumed)
T1 sequence (looked up) 1: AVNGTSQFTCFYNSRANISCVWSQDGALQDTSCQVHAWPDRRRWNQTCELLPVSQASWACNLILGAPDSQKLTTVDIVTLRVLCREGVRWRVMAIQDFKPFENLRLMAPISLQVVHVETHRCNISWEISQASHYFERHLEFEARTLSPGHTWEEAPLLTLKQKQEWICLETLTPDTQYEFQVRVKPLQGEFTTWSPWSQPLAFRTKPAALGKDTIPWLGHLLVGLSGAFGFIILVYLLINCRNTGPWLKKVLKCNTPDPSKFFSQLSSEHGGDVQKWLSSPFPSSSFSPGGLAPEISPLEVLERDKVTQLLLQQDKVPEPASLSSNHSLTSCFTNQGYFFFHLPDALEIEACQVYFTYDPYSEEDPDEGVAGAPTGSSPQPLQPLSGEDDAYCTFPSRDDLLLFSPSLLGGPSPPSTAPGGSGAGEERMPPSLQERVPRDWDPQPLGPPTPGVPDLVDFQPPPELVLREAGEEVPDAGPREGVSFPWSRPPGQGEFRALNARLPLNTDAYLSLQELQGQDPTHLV
T1 sequence (looked up) 2: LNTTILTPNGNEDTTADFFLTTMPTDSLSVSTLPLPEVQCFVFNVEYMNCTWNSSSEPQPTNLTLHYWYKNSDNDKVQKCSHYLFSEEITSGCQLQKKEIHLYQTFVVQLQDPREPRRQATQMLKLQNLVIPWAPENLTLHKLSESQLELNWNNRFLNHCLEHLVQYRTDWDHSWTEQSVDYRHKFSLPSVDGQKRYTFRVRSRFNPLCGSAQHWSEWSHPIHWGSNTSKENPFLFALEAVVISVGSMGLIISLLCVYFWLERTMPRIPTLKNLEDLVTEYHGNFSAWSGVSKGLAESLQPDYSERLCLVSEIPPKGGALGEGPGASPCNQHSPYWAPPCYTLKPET

B1: CMP-315, uPa cleaved (ligand)
chain: APTSSSTKKTQLQLEHLLLDLQKILNGINNYKNPKLTR[Nle]L[hSer][Yn3]KF[Ygp][Nle]PKKATELKHLQCLEEELKPLEEVL[hSer]LAQSKNFHLRPRDLISNINVIVLELKGSETTF[hSer]CEYADETATIVEFLNRWITFSQSIISTLT
modifications: ends and bridges not checked; also: further groups not given here, tested after uPa cleavage, remaining product not given here
B2: CMP-315, matriptase cleaved (ligand)
chain: APTSSSTKKTQLQLEHLLLDLQKILNGINNYKNPKLTR[Nle]L[hSer][Yn3]KF[Ygp][Nle]PKKATELKHLQCLEEELKPLEEVL[hSer]LAQSKNFHLRPRDLISNINVIVLELKGSETTF[hSer]CEYADETATIVEFLNRWITFSQSIISTLT
modifications: ends and bridges not checked; also: further groups not given here, tested after matriptase cleavage, remaining product not given here
B3: CMP-330 (ligand)
chain: APTSSSTKKTQLQLEHLLLDLQEILNGINNYKNPKLTR[Nle]L[hSer]Y(9x polyethylene glycol‑azido)KFY(8x polyethylene glycol‑amino)[Nle]PKKATELKHLQCLEEELKPLEEVL[hSer]LAQSKNFHLRPRDLISNINVIVLELKGSETTF[hSer]CEYADETATIVEFLNRWITFSQSIISTLT
modifications: bridge 9-23; not fully specified (bridges)
B4: CMP-316 (ligand)
chain: APTSSSTKKTQLQLEHLLLDLQKILNGINNYKNPKLTR[Nle]L[hSer][Yn3]KF[Ygp][Nle]PKKATELKHLQCLEEELKPLEEVL[hSer]LAQSKNFHLRPRDLISNINVIVLELKGSETTF[hSer]CEYADETATIVEFLNRWITFSQSIISTLT
modifications: ends and bridges not checked; also: further groups not given here
B5: CMP-305 (ligand)
chain: APTSSSTKKTQLQLEHLLLDLQKILNGINNYKNPKLTR[Nle]L[hSer][Yn3(4)]KF[Ygp(4)][Nle]PKKATELKHLQCLEEELKPLEEVL[hSer]LAQSKNFHLRPRDLISNINVIVLELKGSETTF[hSer]CEYADETATIVEFLNRWITFSQSIISTLT
modifications: bridge 15-23; not fully specified (bridges); ends not checked
B6: CMP-320 (ligand)
chain: SGRVAPQPLVDAPTSSSTKKTQLQLEHLLLDLQEILNGINNYKNPKLTR[Nle]L[hSer][Yn3(6)]KF[Ygp(6)][Nle]PKKATELKHLQCLEEELKPLEEVL[hSer]LAQSKNFHLRPRDLISNINVIVLELKGSETTF[hSer]CEYADETATIVEFLNRWITFSQSIISTLT
modifications: lactam N-34
B7: CMP-315, MMP2 cleaved (ligand)
chain: APTSSSTKKTQLQLEHLLLDLQKILNGINNYKNPKLTR[Nle]L[hSer][Yn3(4)]KF[Ygp(4)][Nle]PKKATELKHLQCLEEELKPLEEVL[hSer]LAQSKNFHLRPRDLISNINVIVLELKGSETTF[hSer]CEYADETATIVEFLNRWITFSQSIISTLT
modifications: ends and bridges not checked; also: MMP2-cleaved, product after cut not given here, further groups not given here
B8: CMP-316, MMP2 cleaved (ligand)
chain: APTSSSTKKTQLQLEHLLLDLQKILNGINNYKNPKLTR[Nle]L[hSer][Yn3]KF[Ygp][Nle]PKKATELKHLQCLEEELKPLEEVL[hSer]LAQSKNFHLRPRDLISNINVIVLELKGSETTF[hSer]CEYADETATIVEFLNRWITFSQSIISTLT
modifications: ends and bridges not checked; also: further groups not given here, tested after MMP2 cleavage, remaining product not given here
B9: CMP-321 (ligand)
chain: SGRVQPLVDAPTSSSTKKTQLQLEHLLLDLQEILNGINNYKNPKLTR[Nle]L[hSer][Yn3(6)]KF[Ygp(6)][Nle]PKKATELKHLQCLEEELKPLEEVL[hSer]LAQSKNFHLRPRDLISNINVIVLELKGSETTF[hSer]CEYADETATIVEFLNRWITFSQSIISTLT
modifications: lactam N-32
B10: CMP-317 (ligand)
chain: GSGSGSG[PEG4′]APTSSSTKKTQLQLEHLLLDLQEILNGINNYKNPKLTR[Nle]L[hSer][Yn3]KF[Ygp][Nle]PKKATELKHLQCLEEELKPLEEVL[hSer]LAQSKNFHLRPRDLISNINVIVLELKGSETTF[hSer]CEYADETATIVEFLNRWITFSQSIISTLT
modifications: bridge N-31; not fully specified (bridges); ends not checked
B11: CMP-318 (ligand)
chain: SGRVANLVGAPTSSSTKKTQLQLEHLLLDLQEILNGINNYKNPKLTR[Nle]L[hSer][Yn3]KF[Ygp][Nle]PKKATELKHLQCLEEELKPLEEVL[hSer]LAQSKNFHLRPRDLISNINVIVLELKGSETTF[hSer]CEYADETATIVEFLNRWITFSQSIISTLT
modifications: lactam N-32; ends not checked
B12: CMP-305, MMP2 cleaved (ligand)
chain: APTSSSTKKTQLQLEHLLLDLQKILNGINNYKNPKLTR[Nle]L[hSer][Yn3(4)]KF[Ygp(4)][Nle]PKKATELKHLQCLEEELKPLEEVL[hSer]LAQSKNFHLRPRDLISNINVIVLELKGSETTF[hSer]CEYADETATIVEFLNRWITFSQSIISTLT
modifications: ends and bridges not checked; also: Glu15 and Lys23 side chains carried cleaved peptide linker, remnants after MMP2 cut not given here
B13: CMP-315 (ligand)
chain: APTSSSTKKTQLQLEHLLLDLQKILNGINNYKNPKLTR[Nle]L[hSer][Yn3(4)]KF[Ygp(4)][Nle]PKKATELKHLQCLEEELKPLEEVL[hSer]LAQSKNFHLRPRDLISNINVIVLELKGSETTF[hSer]CEYADETATIVEFLNRWITFSQSIISTLT
modifications: ends and bridges not checked; also: further groups not given here
B14: CMP-329, MMP2 cleaved (ligand)
chain: APTSSSTKKTQLQLEHLLLDLQEILNGINNYKNPKLTR[Nle]L[hSer][Yn3″]KF[Ygp″][Nle]PKKATELKHLQCLEEELKPLEEVL[hSer]LAQSKNFHLRPRDLISNINVIVLELKGSETTF[hSer]CEYADETATIVEFLNRWITFSQSIISTLT
modifications: ends and bridges not checked; also: after MMP2 cleavage, remnants of the Lys9–Glu23 peptide linker not given here
B15: CMP-330, MMP2 cleaved (ligand)
chain: APTSSSTKKTQLQLEHLLLDLQEILNGINNYKNPKLTR[Nle]L[hSer]Y(9x polyethylene glycol‑azido)KFY(8x polyethylene glycol‑amino)[Nle]PKKATELKHLQCLEEELKPLEEVL[hSer]LAQSKNFHLRPRDLISNINVIVLELKGSETTF[hSer]CEYADETATIVEFLNRWITFSQSIISTLT
modifications: not fully specified; also: before the cut Lys9 and Glu23 side chains are bridged by a peptide linker, what remains after the cut not given here
B16: CMP-329 (ligand)
chain: APTSSSTKKTQLQLEHLLLDLQEILNGINNYKNPKLTR[Nle]L[hSer][Yn3″]KF[Ygp″][Nle]PKKATELKHLQCLEEELKPLEEVL[hSer]LAQSKNFHLRPRDLISNINVIVLELKGSETTF[hSer]CEYADETATIVEFLNRWITFSQSIISTLT
modifications: bridge 9-23; not fully specified (bridges); ends not checked

Each binder was assayed against T1, IL-2Rβγ on HEK-Blue IL-2Rβγ reporter … (assay: cell-based or functional assay).

| Binder | Average EC50, HEK-Blue IL-2R (CD122+, CD132+) Reporter Assay, uPa cleaved molecule [nM] | Average EC50, HEK-Blue IL-2R (CD122+, CD132+) Reporter Assay, Matriptase cleaved molecule [nM] | Average EC50, HEK-Blue IL-2R (CD122+, CD132+) Reporter Assay, intact molecule [nM] | Average EC50, HEK-Blue IL-2R (CD122+, CD132+) Reporter Assay, MMP2 cleaved molecule [nM] |
| --- | --- | --- | --- | --- |
| B1 | 0.0581 | – | – | – |
| B2 | – | 0.0349 | – | – |
| B3 | – | – | 1.73 | – |
| B4 | – | – | 0.0968 | – |
| B5 | – | – | 0.497 | – |
| B6 | – | – | 0.775 | – |
| B7 | – | – | – | 0.0418 |
| B8 | – | – | – | 0.0963 |
| B9 | – | – | 4.2 | – |
| B10 | – | – | 2.24 | – |
| B11 | – | – | 3.37 | – |
| B12 | – | – | – | 0.0185 |
| B13 | – | – | 0.0554 | – |
| B14 | – | – | – | 0.0702 |
| B15 | – | – | – | 0.558 |
| B16 | – | – | 1.7 | – |
